Data taken from US20260126450A1.

Experiments:
[1] = target: surface HIV-1 Env BG505 SOSIP (HIV-1 BG505.DS-SOSIP trimeric antigen), membrane-bound on HEK293 cells (HIV-1); assay: FACS, anti-Kappa-FITC stain of HEK293 cells co-expressing surface Env and secreted IgG1 after 24 h in droplets
[2] = target: surface HIV-1 Env BG505 SOSIP (HIV-1 BG505.DS-SOSIP trimeric antigen), membrane-bound on HEK293 cells (HIV-1); assay: droplet co-expression, FACS sort for anti-Kappa-FITC, NGS of VH genes

With VRC01 (antibody) the fold anti-Kappa binding against cells expressing 1-20 [1] was greater than 5 fold and the Enrichment Ratio (FITC+ prevalence / FITC- prevalence) [2] was 2.
